{"source": "paper PMC12196458", "about": "“An Alternative Mechanism of Glutamate Dehydrogenase Inhibition by EGCG: Promotion of Protein Degradation” (Pharmaceuticals, 2025)", "proteins": {"B1": {"name": "bovine glutamate dehydrogenase (enzyme)", "chain": "not shown", "notes": "Glutamate dehydrogenase 1, bovine, commercial preparation; Used as a substitute for wild-type human GDH in the gel experiments; also called Bovine GDH; Bo.GDH"}}, "target": "the molecule itself", "assay": "native gel or EMSA; native-PAGE of 2.5 mg/mL bovine GDH without EGCG or trypsin"}
{"protein": "B1", "values": [{"measurement": "stoichiometry N", "result": 6}]}
